Experimental data from paper PMC9452514, “Coiled-coil structure of meiosis protein TEX12 and conformational regulation by its C-terminal tip” (Communications Biology, 2022).
Positions count from the first letter of the chain named. In names and notes the source's numbering stands.

B1: TEX12 ΔCtip (amino-acids 49–113) (domain or fragment, human, UniProt Q9BXU0 49-113, looked up)
chain: KDEALEKDLNDVSKEINLMLSTYAKLLSERAAVDASYIDEIDELFKEANAIENFLIQKREFLRQR
notes: TEX12, human, core without the C-terminal tip (deletion of amino-acids 114-123), amino-acids 49-113; Tetramer in the crystal (6HK8); in solution tetramers in concentration-dependent equilibrium with dimers; also called TEX12 ΔCtip (49–113); source: E. coli BL21 (DE3), purified (Ni-NTA, amylose, HiTrap Q HP, TEV cleavage, SEC); not shown: His, N-terminal, cleaved; MBP, N-terminal, cleaved
B2: TEX12 core (amino-acids 49–123) wild-type (domain or fragment, human, UniProt Q9BXU0 49-123, looked up)
chain: KDEALEKDLNDVSKEINLMLSTYAKLLSERAAVDASYIDEIDELFKEANAIENFLIQKREFLRQRFTVIANTLHR
notes: TEX12, human, structural core, amino-acids 49-123; expressed from pMAT11 as a TEV-cleavable His-MBP fusion; also called TEX12 wild-type; WT; source: E. coli BL21 (DE3), purified (Ni-NTA, amylose, HiTrap Q HP, TEV cleavage, SEC); not shown: His, N-terminal, cleaved; MBP, N-terminal, cleaved
B3: TEX12 core (amino-acids 49–123) L110E F114E I117E L121E (LFIL) (domain or fragment, human, UniProt Q9BXU0 49-123, looked up)
chain: B2 chain with L62E, F66E, I69E, L73E
notes: TEX12, human, structural core, amino-acids 49-123, with glutamate mutations of the Ctip heptad amino-acids; In solution tetramers in concentration-dependent equilibrium with dimers; also called TEX12 LFIL; source: E. coli BL21 (DE3), purified (Ni-NTA, amylose, HiTrap Q HP, TEV cleavage, SEC); not shown: His, N-terminal, cleaved; MBP, N-terminal, cleaved
B4: TEX12 core (amino-acids 49–123) F102A F109E V116A (FFV) (domain or fragment, human, UniProt Q9BXU0 49-123, looked up)
chain: B2 chain with F54A, F61E, V68A
notes: TEX12, human, structural core, amino-acids 49-123, with mutations of solvent-exposed residues; both crystal forms (6HK9, 6R2F) show dimers; The introduction gives the FFV of the earlier work as F102A F109A V116A; also called TEX12 FFV; TEX12 (49–123) FFV; source: E. coli BL21 (DE3), purified (Ni-NTA, amylose, HiTrap Q HP, TEV cleavage, SEC); not shown: His, N-terminal, cleaved; MBP, N-terminal, …

Key:
[1] = target: the molecule itself; assay: SEC-MALS; Superdex 200 Increase 10/300 GL, 20 mM Tris pH 8.0, 150 mM KCl, 2 mM DTT; ΔCtip and LFIL loaded at 1 mg/ml after stepwise dilution
[2] = target: the molecule itself; assay: SEC-SAXS; Superdex 200 Increase 10/300 GL, 20 mM Tris pH 8.0, 150 mM KCl; ΔCtip and LFIL analysed at ~30 mg/ml to minimise dissociation
[3] = target: the molecule itself; assay: SEC-MALS; Superdex 200 Increase 10/300 GL, 20 mM Tris pH 8.0, 150 mM KCl, 2 mM DTT; wild-type and FFV at >10 mg/ml and at 1 mg/ml; species stable across 1-10 mg/ml
[4] = target: the molecule itself; assay: SEC-SAXS; Superdex 200 Increase 10/300 GL, 20 mM Tris pH 8.0, 150 mM KCl; samples at >5 mg/ml; beamline B21, Diamond Light Source
[5] = target: the molecule itself; assay: crystal structure; TEX12 FFV at 43 mg/ml, sitting drops, 200 mM calcium acetate, 40% MPD, 20 °C; C222_(1), 1.45 Å, two chains per asymmetric unit

Row | Protein | stoichiometry N [1] | stoichiometry N [2] | stoichiometry N [3] | stoichiometry N [4] | stoichiometry N [5]
1 | B1 | 2 | 4 | – | – | –
2 | B2 | – | – | 2 | – | –
3 | B3 | 2 | 4 | – | – | –
4 | B4 | – | – | – | 4 | 2
